For assay [1], the target named is T1, mLAMP1::histag (mouse, UniProt P11438 25-369).
T1 construct: also called mouse LAMP1 (25-369); Mouse LAMP1
T1 sequence: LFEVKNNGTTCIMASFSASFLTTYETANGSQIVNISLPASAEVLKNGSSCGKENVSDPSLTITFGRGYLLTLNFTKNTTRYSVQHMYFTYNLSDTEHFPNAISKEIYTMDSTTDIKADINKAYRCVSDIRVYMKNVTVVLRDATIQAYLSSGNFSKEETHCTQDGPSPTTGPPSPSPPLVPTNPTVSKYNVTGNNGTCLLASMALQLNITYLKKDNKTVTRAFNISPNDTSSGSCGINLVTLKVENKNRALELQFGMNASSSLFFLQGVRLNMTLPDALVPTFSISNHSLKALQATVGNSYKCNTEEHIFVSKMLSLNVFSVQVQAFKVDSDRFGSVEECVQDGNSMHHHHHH
The assay can be described thus: ELISA. A general note: An ELISA detects its analyte on a solid surface through an enzyme-linked reagent.

In assay [2] the target is T2, mLAMP1_L1_LAMP1_L234::histag (mouse/human hybrid).
T2 construct: also called Loop1: mLAMP1 Loop2-4: hLAMP1
T2 chain: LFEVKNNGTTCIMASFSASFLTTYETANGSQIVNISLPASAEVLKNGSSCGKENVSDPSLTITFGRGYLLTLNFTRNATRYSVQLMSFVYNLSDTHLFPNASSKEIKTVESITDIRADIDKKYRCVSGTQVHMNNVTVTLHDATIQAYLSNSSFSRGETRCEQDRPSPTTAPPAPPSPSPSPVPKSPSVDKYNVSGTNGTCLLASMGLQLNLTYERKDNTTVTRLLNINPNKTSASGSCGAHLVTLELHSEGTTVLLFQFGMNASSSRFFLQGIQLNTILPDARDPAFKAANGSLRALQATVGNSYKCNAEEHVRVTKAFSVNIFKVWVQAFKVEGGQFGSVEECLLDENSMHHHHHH
The assay can be described thus: ELISA.

Assay [3] has as its target T3, mLAMP1_L12_LAMP1_L34::histag (mouse/human hybrid).
T3 construct: mouse LAMP1 (25-189) and human LAMP1 (196-382), His tag; also called Loop1-2: mLAMP1 Loop3-4: hLAMP1
T3 chain: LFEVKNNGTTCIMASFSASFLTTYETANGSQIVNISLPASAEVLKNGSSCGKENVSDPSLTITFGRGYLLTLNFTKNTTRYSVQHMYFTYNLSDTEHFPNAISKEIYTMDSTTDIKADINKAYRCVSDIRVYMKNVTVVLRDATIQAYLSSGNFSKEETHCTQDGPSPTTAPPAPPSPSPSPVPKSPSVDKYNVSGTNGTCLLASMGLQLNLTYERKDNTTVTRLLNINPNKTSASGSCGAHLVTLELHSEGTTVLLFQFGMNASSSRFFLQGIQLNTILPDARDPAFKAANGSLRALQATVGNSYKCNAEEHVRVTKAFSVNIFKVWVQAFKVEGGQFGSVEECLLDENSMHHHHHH
The assay can be described thus: ELISA.

Assay [4] has as its target T4, hLAMP1_ΔGYQTI (human, UniProt P11279 29-412).
T4 construct: also called pXL5626
T4 sequence: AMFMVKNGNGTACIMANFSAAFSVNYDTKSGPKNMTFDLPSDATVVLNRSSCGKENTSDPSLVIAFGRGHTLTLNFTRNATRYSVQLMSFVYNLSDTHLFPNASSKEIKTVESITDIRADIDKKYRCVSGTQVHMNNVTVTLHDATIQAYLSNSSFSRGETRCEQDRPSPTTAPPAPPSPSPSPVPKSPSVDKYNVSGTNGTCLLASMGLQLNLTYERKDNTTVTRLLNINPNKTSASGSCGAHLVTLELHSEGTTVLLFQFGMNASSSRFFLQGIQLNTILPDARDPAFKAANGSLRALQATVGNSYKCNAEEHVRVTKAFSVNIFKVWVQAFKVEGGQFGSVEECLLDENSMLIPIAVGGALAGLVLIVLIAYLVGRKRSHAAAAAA
Description: flow cytometry, transfected 293-F cells. (In flow cytometry, cells or beads pass a laser one at a time.)

In assay [5] the target is T5, LAMP1_mL1_hL234_ΔGYQTI (mouse; human).
T5 construct: on cells; also called pXL5668
T5 chain: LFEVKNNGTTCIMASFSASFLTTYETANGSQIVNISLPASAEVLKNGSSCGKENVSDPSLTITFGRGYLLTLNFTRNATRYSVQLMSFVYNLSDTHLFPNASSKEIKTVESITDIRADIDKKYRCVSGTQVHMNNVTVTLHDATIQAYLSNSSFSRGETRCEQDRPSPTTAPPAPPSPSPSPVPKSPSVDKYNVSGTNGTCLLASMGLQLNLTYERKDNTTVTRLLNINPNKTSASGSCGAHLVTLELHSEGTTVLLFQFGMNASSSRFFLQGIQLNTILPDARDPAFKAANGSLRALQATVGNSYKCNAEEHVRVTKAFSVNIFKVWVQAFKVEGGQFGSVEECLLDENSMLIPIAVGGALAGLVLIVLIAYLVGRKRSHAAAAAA
The assay can be described thus: flow cytometry, transfected 293-F cells.

The target of assay [6] is T6, human LAMP1 at the cell surface (human, UniProt P11279 29-417).
T6 sequence: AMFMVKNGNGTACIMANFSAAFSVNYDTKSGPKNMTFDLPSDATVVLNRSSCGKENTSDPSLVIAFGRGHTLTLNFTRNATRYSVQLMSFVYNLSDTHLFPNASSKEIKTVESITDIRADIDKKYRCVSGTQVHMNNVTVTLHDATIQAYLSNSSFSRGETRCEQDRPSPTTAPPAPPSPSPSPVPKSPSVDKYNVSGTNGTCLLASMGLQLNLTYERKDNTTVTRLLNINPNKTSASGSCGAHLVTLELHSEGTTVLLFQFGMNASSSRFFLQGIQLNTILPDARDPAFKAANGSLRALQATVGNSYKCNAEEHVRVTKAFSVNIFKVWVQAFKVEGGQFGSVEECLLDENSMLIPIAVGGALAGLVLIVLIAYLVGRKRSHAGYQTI
The assay can be described thus: cell-based or functional assay.

The target in assay [7] is T7, LAMP1::histag (human, UniProt P11279 29-382).
T7 construct: extracellular domain without signal peptide, C-terminal 6 His tag, made in HEK293 cells; also called recombinant human LAMP1; human LAMP1 (29-382)
T7 sequence: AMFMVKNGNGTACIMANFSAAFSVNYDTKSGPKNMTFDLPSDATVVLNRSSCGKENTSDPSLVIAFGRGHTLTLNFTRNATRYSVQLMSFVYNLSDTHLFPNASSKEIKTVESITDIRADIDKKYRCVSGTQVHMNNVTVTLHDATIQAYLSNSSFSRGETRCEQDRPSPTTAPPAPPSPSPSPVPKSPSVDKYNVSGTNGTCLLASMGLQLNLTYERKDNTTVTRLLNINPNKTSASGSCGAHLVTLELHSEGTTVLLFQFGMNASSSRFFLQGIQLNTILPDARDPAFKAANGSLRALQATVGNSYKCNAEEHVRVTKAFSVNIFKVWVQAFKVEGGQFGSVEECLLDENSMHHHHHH
Description: ELISA on secreted human LAMP1.

Assay [8] addresses T6, human LAMP1 at the cell surface. The assay can be described thus: flow cytometry, HCT116 huLAMP1 clone 8. How it is done: 100 μL/well of goat anti-human IgG conjugated with Alexa488 (Invitrogen; # A11013) was added for 1 h at 4° C. and washed two times with PBS 1% BSA. The antibody binding was evaluated after centrifugation and resuspension of cells in 100 ul fixing solution (paraformaldehyde at 4% in PBS). Samples were read using Galaxy® Flow Cytometry System (Partec).

The target of assay [9] is T8, cynomolgus monkey LAMP1 at the cell surface (cynomolgus monkey, UniProt P11279 29-417 (human entry)).
T8 construct: also called cynoLAMP1; cynomolgus LAMP1
T8 chain: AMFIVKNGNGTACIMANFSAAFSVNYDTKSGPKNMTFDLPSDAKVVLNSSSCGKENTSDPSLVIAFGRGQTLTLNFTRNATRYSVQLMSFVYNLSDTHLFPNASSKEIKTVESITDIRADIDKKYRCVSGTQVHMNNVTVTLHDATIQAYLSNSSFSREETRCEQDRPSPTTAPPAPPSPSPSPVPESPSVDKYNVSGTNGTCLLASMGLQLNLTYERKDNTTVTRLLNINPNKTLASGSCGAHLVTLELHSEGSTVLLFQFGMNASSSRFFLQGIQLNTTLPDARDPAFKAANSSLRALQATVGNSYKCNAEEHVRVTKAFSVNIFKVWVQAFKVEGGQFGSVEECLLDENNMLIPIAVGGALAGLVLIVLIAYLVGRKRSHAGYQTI
The assay can be described thus: flow cytometry.

Assay [10] addresses T6, human LAMP1 at the cell surface. The assay can be described thus: cell-based or functional assay. This is another data set of the same source.
Assay [11] has the same target. Description: flow cytometry, HCT116 huLAMP1 clone 8. As for the experimental part: HCT116 cells were infected by a lentiviral vector allowing stable integration of the human or the cynomolgus LAMP1 CDS in genomic DNA of cells. Individual clones with different densities of human or cynomolgus LAMP1 cell surface localization were derived from a pool of HCT116 infected cells. […] 100 μL/well of goat anti-human IgG conjugated with Alexa488 (Invitrogen; # A11013) was added for 1 h at 4° C. and washed two times with PBS 1% BSA. The antibody binding was evaluated after centrifugation and resuspension of cells in 100 μl fixing solution (paraformaldehyde at 4% in PBS). Samples were read using Galaxy® Flow Cytometry System (Partec). EC50 values were estimated using BIOST@T-SPEED software.
This is another data set of the same source.

Assay [12] deals with T8, cynomolgus monkey LAMP1 at the cell …. Description: flow cytometry, HEK293 cynoLAMP1 clone 44.

Read-outs that look alike come from different tables or passages of the source.

B1: chMAb3 (antibody, human IgG1, kappa, V domains shown)
VH: QIQLVQSGPELKKPGETVKISCKASGYIFTNYGMNWVKQAPGKGLKWMGWINTYTGESRYADDFKGRFALSLETSASTAYLQINNLENEDMATYFCAREDYYGNSPWFFDVWGAGTTVTVSS
VL: DIQMTQTTSSLSASLGDRVTISCNASQGINKYLNWYQQKPDGTVKLLIYYTSTLHSGVPSRFSGSGSGTDYSLTINNLEPEDIATYYCQQYTKLPFTFGSGTKLEIKR
notes: chimeric, human IgG1, Ckappa
For B1, the binding result in assay [1], in [2], in [3] and in assay [5] was “no binding” throughout. Moreover, the mean fluorescence in assay [4] stood at 640.

B2: chMAb1 (antibody, human IgG1, kappa)
heavy: not shown
light: DIQMTQSPPSLSASLGGKVTITCKASQDIDRYMAWYQDKPGKGPRLLIHDTSTLQPGIPSRFSGSGSGRDYSFSISNLEPEDIATYYCLQYDNLWTFGGGTKLEIKRTVAAPSVFIFPPSDEQLKSGTASVVCLLNNFYPREAKVQWKVDNALQSGNSQESVTEQDSKDSTYSLSSTLTLSKADYEKHKVYACEVTHQGLSSPVTKSFNRGEC
notes: chimeric, human IgG1, Ckappa; also called MAb1 (chimeric)
As for B2, in assay [1], the binding result was “no binding”. For the same molecule, the binding result in assay [3] is on record as “no binding”. Further, in [6], the “ADCC EC50, NK batch 67125626389” value is 0.05 nM; the “ADCC EC50, NK batch 67125903091” value was 0.76 nM; the “ADCC EC50, NK batch 67130127373” value amounted to 0.009 nM; the “ADCC EC50, NK batch 67130494552” value stood at 0.2 nM. The “ADCC EC50, NK batch 67130496259” value in assay [6] is 0.6 nM. Also, the EC50 (in general, the concentration giving half of the maximal effect) in [7] turned out to be 0.09 nM. In assay [8], this molecule came in with an EC50 of 6 nM.

B3: DM4-SPDB-huMAb1_1 (antibody, human IgG1, kappa)
heavy: not shown
light: DIQMTQSPSSLSASVGDRVTITCKASQDIDRYMAWYQDKPGKAPRLLIHDTSTLQSGVPSRFSGSGSGRDYTLTISNLEPEDFATYYCLQYDNLWTFGGGTKVEIKRTVAAPSVFIFPPSDEQLKSGTASVVCLLNNFYPREAKVQWKVDNALQSGNSQESVTEQDSKDSTYSLSSTLTLSKADYEKHKVYACEVTHQGLSSPVTKSFNRGEC
modifications: DM4 linked through SPDB, average DAR 3.4 per antibody; sites not stated
notes: antibody drug conjugate of huMAb1_1
B3: the “Ratio of EC50s (cynoLAMP1 against huLAMP1)” value in assay [9] stood at 2.65. Moreover, the “cytotoxicity IC50, HCT116 huLAMP1 clone 8” value in assay [10] came out at 0.1 nM. The EC50 in assay [11] came out at 12.7 nM; in [12], 33.5 nM.

The values above are taken from US20180142032A1 (Sanofi, published 2018).
